Laboratory results taken from patent publication US20250269018A1, “COMBINED CANCER THERAPY WITH AN EPITHELIAL CELL ADHESION MOLECULE (EPCAM) INHIBITOR AND A HEPATOCYTE GROWTH FACTOR RECEPTOR (HGFR) INHIBITOR” (ACADEMIA SINICA, priority 2021, published 2025).

B1: EpAb2-6: anti-EpCAM neutralizing monoclonal antibody targeting EpEX; VH SEQ ID NO: 15, VL SEQ ID NO: 16 (antibody, listed as Homo sapiens, V domains shown)
VH: VKLQESGPELKKPGETVKISCKASGYTFTDYSMHWVKQAPGKGLKWMGWINTETGEPTYADDFKGRFAFSLETSASTAYLQINNLKNEDTATYFCARTAVYWGQGTTVTVSS
VL: DIQMTQSPSSLSASLGERVSLTCRASQEISVSLSWLQQEPDGTIKRLIYATSTLDSGVPKRFSGSRSGSDYSLTISSLESEDFVDYYCLQYASYPWTFGGGTKLEIKRADAAPTVS

Tested on: HGFR signaling
Assay: Western blotting of phosphorylated HGFR, AKT, ERK, FAK in HCT116 cells
Type: cell-based, human
Conditions: for phosphorylation of HGFR, AKT, and ERK: FIG. 7D
Protocol: FIGS. 2A to 2K. EpEX promotes tumor progression via HGFR signaling. (FIG. 2A) WT or EpCAM knockout (KO) HCT116 and HT29 cells treated with HGF (0.5 nM) for 15 min. The phosphorylation of HGFR, AKT, and ERK was examined by Western blotting. (FIG. 2B) WT or KO HCT116 and HT29 cells were treated with HGF (0.5 nM) with 2% FBS for the indicated times. Cell growth was examined by the WST-1 assay. (FIG. 2C) Starved HCT116 cells were treated with HGFR inhibitor SU11274 (SU, 10 μM) for 1 h then treated with 50 nM of EpEX-His for 15 min. The levels of phosphorylated HGFR, EGFR, AKT, and ERK were examined by Western blotting. HCT116 and HT29 cells were treated with 50 nM EpEX and SU (10 μM). (FIG. 2D) Cell growth was examined by WST-1 assay after treatment for indicated time. (FIG. 2E) HCT116 cells were treated with shLuc or HGFR shRNA then treated with 50 nM of EpEX-His for 15 min. The levels of phosphorylated HGFR, EGFR, ERK, and AKT were examined in HGFR knockdown HCT116 cells by Western blotting. (FIG. 2F) The levels of phosphorylated ADAM17 and presenilin 2 were examined by Western blotting. (FIG. 2G) Active β-catenin nuclear translocation was assay by using Western blotting. (H) HCT116 cells were treated with shLuc or HGFR shRNA then treated with 50 nM of EpEX-His for indicated times. Cell growth was examined by the WST-1 assay. (FIG. 2I) HCT116 cells after shLuc and shHGFR treatment were treated with 50 nM of EpEX-His with 2% FBS for 7 days. Colony formation was examined by crystal violet staining.
FIGS. 6A to 6J. EpAb2-6 inhibits EpCAM and HGFR signaling and promotes active β-catenin and Snail protein degradation via activating GSK3β. (FIG. 6A) HCT116 cells were treated with 10 μg/ml control IgG (normal mouse IgG, NMIgG) or mouse EpAb2-6 (EpAb2-6) for 16 h, followed by treatment with EpEX-His (50 nM) for 15 min. Levels of phosphorylated HGFR, AKT, FAK, GSK3β, ERK, ADAM17, and presenilin 2 were examined by Western blotting. (FIG. 6B) HCT116 cells were treated with 10 μg/ml control IgG or mouse EpAb2-6 for 16 h, followed by treatment without or with HGF (0.5 nM) for 15 min. Levels of phosphorylated HGFR, AKT, and ERK were examined by Western blotting. HCT116 cells were treated with mouse EpAb2-6 (10 μg/ml) and HGF (0.5 nM). (FIG. 6C) Cell migration was examined by the wound healing assay at the indicated times. (FIG. 6D) Cell invasion was assessed by a Transwell assay with matrigel after 24 h. (FIG. 6E) HCT116 cells were treated with NMIgG or EpAb2-6 for 6 h and then immunoprecipitated with anti-EpCAM (IP: EpCAM) or anti-HGFR (IP: HGFR) antibodies, followed by Western blotting. (FIG. 6F) EpEX-His (2 μg/ml) co-treated with 1 μg IgG or EpAb2-6 was added to HGFR-Fc-coated (1 μg/ml) ELISA plates and detected by TMB colorimetric peroxidase assay. (FIG. 6G) EMT associated protein levels were detected by Western blotting in HCT116 cells treated with NMIgG or EpAb2-6 for 24 h. (FIG. 6H) Protein expression was analyzed by Western blotting in HCT116 cells after treatment with EpAb2-6 and 2 μM GSK3β inhibitor (BIO) for 24 h. Quantification of the normalized protein expression in the bottom panel. (FIG. 6I) HCT116 cells were treated with 10 μM MG132 and EpAb2-6 for 6 h before cell collection and subsequent Western blotting. (FIG. 6J) Stability of Snail protein in HCT116 cells treated with NMIgG or EpAb2-6. Cells were treated with cyclohexamide (CHX) 100 μg/ml at the indicated intervals and subjected to Western blotting.
FIGS. 7A to 7G. EpAb2-6 binds EpEX and induces apoptosis by F(ab′)2 and inhibits regulated intramembrane proteolysis (RIP) activation and HGFR signaling. (FIG. 7A) Binding affinity of IgG EpAb2-6 (mouse) and F(ab′)2 to EpEX-His (1 μg/ml) coated overnight was checked using ELISA (OD450). (FIG. 7B) HCT116 cells were treated with 100 μg/ml control IgG, Fc, or F(ab′)2 of EpAb2-6 for 24 h. The apoptotic and necrotic cells were quantified by fluorescein annexin V-FITC/PI double labeling. […]

[1] = HCT116, 10 μg/ml 16 h, then EpEX-His 50 nM 15 min

Molecule | EpEX-mediated ERK and AKT phosphorylation (HCT116 cells, SU 10 μM 1 h, then 50 nM EpEX-His 15 min, FIG. 2C) | phosphorylation of HGFR, AKT, and ERK [1] | phosphorylation of HGFR, AKT, ERK, and FAK (HCT116, 10 μg/ml 16 h, then EpEX-His 50 nM 15 min, vs control IgG, FIG. 6A) | phosphorylation levels of HGFR, AKT, and ERK (HCT116, 10 μg/ml 16 h, without or with HGF 0.5 nM 15 min, FIG. 6B) | levels of phosphorylated HGFR (after EpAb2-6 treatment, discussion statement)
Cc1[nH]c(C=C2C(=O)Nc3ccc(S(=O)(=O)N(C)c4cccc(Cl)c4)cc32)c(C)c1C(=O)N1CCN(C)CC1 (stereo in doubt) [SU11274, (3Z)-N-(3-Chlorophenyl)-3-({3,5-dimethyl-4-[(4-methylpiperazin-1-yl)carbonyl]-1H-pyrrol-2-yl}methylene)-N-methyl-2-oxo-2,3-dihydro-1H-indole-5-sulfonamide] | attenuate EpEX-mediated ERK and AKT phosphorylation | – | – | – | –
MT201: human anti-EpCAM antibody, adecatumumab (MT201) | – | did not | – | – | –
B1 | – | inhibited phosphorylation of HGFR, AKT, and ERK | decreased phosphorylation of HGFR, AKT, ERK, and FAK | significantly decreased | decreased levels of phosphorylated HGFR
